Test results from patent US20220162649A1, “NOVEL NUCLEIC ACID MODIFIERS” (THE BROAD INSTITUTE, INC., priority 2019, published 2022).
Positions count from the first letter of the chain named. Numbers in names are those of the source.

B1: D556A: SaCas9 HNH catalytic residue mutant (protein, UniProt J7RUA5 1-1053, looked up, variant D556A)
CRISPR-associated …: MKRNYILGLDIGITSVGYGIIDYETRDVIDAGVRLFKEANVENNEGRRSKRGARRLKRRRRHRIQRVKKLLFDYNLLTDHSELSGINPYEARVKGLSQKLSEEEFSAALLHLAKRRGVHNVNEVEEDTGNELSTKEQISRNSKALEEKYVAELQLERLKKDGEVRGSINRFKTSDYVKEAKQLLKVQKAYHQLDQSFIDTYIDLLETRRTYYEGPGEGSPFGWKDIKEWYEMLMGHCTYFPEELRSVKYAYNADLYNALNDLNNLVITRDENEKLEYYEKFQIIENVFKQKKKPTLKQIAKEILVNEEDIKGYRVTSTGKPEFTNLKVYHDIKDITARKEIIENAELLDQIAKILTIYQSSEDIQEELTNLNSELTQEEIEQISNLKGYTGTHNLSLKAINLILDELWHTNDNQIAIFNRLKLVPKKVDLSQQKEIPTTLVDDFILSPVVKRSFIQSIKVINAIIKKYGLPNDIIIELAREKNSKDAQKMINEMQKRNRQTNERIEEIIRTTGKENAKYLIEKIKLHDMQEGKCLYSLEAIPLEDLLNNPFNYEVAHIIPRSVSFDNSFNNKVLVKQEENSKKGNRTPFQYLSSSDSKISYETFKKHILNLAKGKGRISKTKKEYLLEERDINRFSVQKDFINRNLVDTRYATRGLMNLLRSYFRVNNLDVKVKSINGGFTSFLRRKWKFKKERNKGYKHHAEDALIIANADFIFKEWKKLDKAKKVMENQMFEEKQAESMPEIETEQEYKEIFITPHQIKHIKDFKDYKYSHRVDKKPNRELINDTLYSTRKDDKGNTLIVNNLNGLYDKDNDKLKKLINKSPEKLLMYHHDPQTYQKLKLIMEQYGDEKNPLYKYYEETGNYLTKYSKKDNGPVIKKIKYYGNKLNAHLDITDDYPNSRNKVVKLSLKPYRFDVYLDNGVYKFVTVKNLDVIKKENYYEVNSKCYEEAKKLKKISNQAEFIASFYNNDLIKINGELYRVIGVNNDLLNRIEVNMIDITYREYLENMNDKRPPRIIKTIASKTQSIKKYSTDILGNLYEVKSKKHPQIIKKG
B2: H557A: SaCas9 HNH catalytic residue mutant (protein, UniProt J7RUA5 1-1053, looked up, variant H557A)
CRISPR-associated …: B1 CRISPR-associated … with A556D, H557A
B3: N580A: SaCas9 HNH catalytic residue mutant (protein, UniProt J7RUA5 1-1053, looked up, variant N580A)
CRISPR-associated …: B1 CRISPR-associated … with A556D, N580A

Key:
[1] = system: NHEJ pathway; experiment: HiBiT assay of HDR enhancement by small-molecule NHEJ pathway inhibitors; assay type: cell-based
[2] = system: target DNA; conditions: SaCas9 mutants; cited from earlier work

Row | Molecule | HDR enhancement in the HiBiT assay [1] | DNA cleavage activity, in words [2]
1 | CCN1CCN(CC(=O)Nc2ccc(-c3cccc4c(=O)cc(N5CCOCC5)oc34)c3sc4ccccc4c23)CC1 [KU-0060648] | enhanced HDR enhancement | 
2 | O=c1cc(N2CCOCC2)oc2c(-c3cccc4c3sc3ccccc34)cccc12 [KU-57788] | enhanced HDR enhancement | 
3 | B1 |  | almost no DNA cleavage activities
4 | B2 |  | almost no DNA cleavage activities
5 | B3 |  | almost no DNA cleavage activities
